According to patent EP4537907A1:

Legend:
[1] = biological target: ADRB1 on human lung fibroblasts (human) (UniProt P08588); test: LRC-TriCEPS ligand-receptor capture on living human lung fibroblasts (n=3 donors), LC-MS/MS enrichment; reference ligand transferrin (TRFE)
[2] = biological target: CSPG4 on human lung fibroblasts (human) (UniProt Q6UVK1); test: as above
[3] = biological target: SNX18 in human lung fibroblasts (human) (UniProt Q96RF0); test: as above
[4] = biological target: CAVN1 in human lung fibroblasts (human) (UniProt Q6NZI2); test: as above
[5] = biological target: NRP1 on human lung fibroblasts (human) (UniProt O14786); test: as above
[6] = biological target: RECK on human lung fibroblasts (human) (UniProt O95980); test: as above
[7] = biological target: ADT3 in human lung fibroblasts (human) (UniProt P12236); test: as above
[8] = biological target: CD44 on human lung fibroblasts (human) (UniProt P16070); test: as above
[9] = biological target: GPC1 on human lung fibroblasts (human) (UniProt P35052); test: as above
[10] = biological target: CD248 on human lung fibroblasts (human) (UniProt Q9HCU0); test: as above
[11] = biological target: ADRB1 on human lung fibroblasts (human) (UniProt P08588); test: LRC-TriCEPS ligand-receptor capture on living human lung fibroblasts (n=3 donors), LC-MS/MS enrichment; reference ligand BSA
[12] = biological target: CSPG4 on human lung fibroblasts (human) (UniProt Q6UVK1); test: as above
[13] = biological target: SNX18 in human lung fibroblasts (human) (UniProt Q96RF0); test: as above
[14] = biological target: CAVN1 in human lung fibroblasts (human) (UniProt Q6NZI2); test: as above
[15] = biological target: NRP1 on human lung fibroblasts (human) (UniProt O14786); test: as above
[16] = biological target: RECK on human lung fibroblasts (human) (UniProt O95980); test: as above
[17] = biological target: ADT3 in human lung fibroblasts (human) (UniProt P12236); test: as above
[18] = biological target: CD44 on human lung fibroblasts (human) (UniProt P16070); test: as above
[19] = biological target: GPC1 on human lung fibroblasts (human) (UniProt P35052); test: as above
[20] = biological target: CD248 on human lung fibroblasts (human) (UniProt Q9HCU0); test: as above

Sequence of CAVN1 in human lung fibroblasts (human) (Q6NZI2 whole entry): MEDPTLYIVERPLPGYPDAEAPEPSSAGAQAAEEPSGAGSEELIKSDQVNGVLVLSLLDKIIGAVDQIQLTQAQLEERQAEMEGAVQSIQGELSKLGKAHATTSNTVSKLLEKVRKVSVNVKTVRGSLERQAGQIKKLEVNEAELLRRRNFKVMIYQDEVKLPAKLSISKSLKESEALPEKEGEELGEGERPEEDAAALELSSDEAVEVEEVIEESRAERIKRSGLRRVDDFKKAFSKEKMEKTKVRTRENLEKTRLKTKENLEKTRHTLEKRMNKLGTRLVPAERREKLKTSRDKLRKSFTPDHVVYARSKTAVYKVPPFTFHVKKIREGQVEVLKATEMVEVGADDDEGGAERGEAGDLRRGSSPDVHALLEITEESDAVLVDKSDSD
Sequence of CD44 on human lung fibroblasts (human) (P16070 21-742): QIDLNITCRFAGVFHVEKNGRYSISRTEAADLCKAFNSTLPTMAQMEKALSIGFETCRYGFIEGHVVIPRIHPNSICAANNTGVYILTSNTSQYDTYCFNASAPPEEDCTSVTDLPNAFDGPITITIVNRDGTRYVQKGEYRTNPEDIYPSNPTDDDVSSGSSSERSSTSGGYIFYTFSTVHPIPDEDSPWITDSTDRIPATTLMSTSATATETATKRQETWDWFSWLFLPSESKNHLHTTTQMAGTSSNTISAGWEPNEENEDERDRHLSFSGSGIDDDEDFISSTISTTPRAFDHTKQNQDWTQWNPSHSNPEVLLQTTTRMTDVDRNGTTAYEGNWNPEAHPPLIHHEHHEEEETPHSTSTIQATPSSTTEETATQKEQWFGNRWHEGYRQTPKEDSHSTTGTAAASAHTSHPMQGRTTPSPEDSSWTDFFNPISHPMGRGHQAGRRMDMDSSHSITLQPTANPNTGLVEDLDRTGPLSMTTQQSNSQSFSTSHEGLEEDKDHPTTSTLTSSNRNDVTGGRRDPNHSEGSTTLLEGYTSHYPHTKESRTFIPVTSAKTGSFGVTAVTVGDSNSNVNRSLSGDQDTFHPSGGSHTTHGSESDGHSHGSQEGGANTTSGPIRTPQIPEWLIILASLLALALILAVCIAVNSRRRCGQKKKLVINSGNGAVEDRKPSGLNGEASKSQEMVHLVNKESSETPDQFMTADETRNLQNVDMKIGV
Sequence of CD248 on human lung fibroblasts (human) (Q9HCU0 18-757): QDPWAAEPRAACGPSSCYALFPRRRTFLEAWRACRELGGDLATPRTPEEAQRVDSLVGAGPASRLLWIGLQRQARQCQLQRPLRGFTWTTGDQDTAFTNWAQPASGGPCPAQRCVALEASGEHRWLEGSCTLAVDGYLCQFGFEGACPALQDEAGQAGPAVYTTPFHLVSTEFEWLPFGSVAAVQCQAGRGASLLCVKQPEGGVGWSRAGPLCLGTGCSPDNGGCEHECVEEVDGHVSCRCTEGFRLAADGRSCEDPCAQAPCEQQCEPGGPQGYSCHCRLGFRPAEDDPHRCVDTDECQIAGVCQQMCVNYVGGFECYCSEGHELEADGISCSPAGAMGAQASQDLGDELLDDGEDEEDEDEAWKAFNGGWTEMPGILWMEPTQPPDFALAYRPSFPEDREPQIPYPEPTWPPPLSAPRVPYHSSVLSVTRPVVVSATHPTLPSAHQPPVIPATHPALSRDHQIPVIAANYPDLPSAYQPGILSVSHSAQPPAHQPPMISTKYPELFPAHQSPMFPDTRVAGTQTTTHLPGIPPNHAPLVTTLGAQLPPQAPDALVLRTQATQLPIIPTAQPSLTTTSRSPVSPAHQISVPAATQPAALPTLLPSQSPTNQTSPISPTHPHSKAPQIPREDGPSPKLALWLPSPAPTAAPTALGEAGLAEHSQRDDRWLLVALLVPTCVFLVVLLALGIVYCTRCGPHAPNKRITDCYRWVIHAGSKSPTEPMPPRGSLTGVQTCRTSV
Sequence of ADT3 in human lung fibroblasts (human) (P12236 whole entry): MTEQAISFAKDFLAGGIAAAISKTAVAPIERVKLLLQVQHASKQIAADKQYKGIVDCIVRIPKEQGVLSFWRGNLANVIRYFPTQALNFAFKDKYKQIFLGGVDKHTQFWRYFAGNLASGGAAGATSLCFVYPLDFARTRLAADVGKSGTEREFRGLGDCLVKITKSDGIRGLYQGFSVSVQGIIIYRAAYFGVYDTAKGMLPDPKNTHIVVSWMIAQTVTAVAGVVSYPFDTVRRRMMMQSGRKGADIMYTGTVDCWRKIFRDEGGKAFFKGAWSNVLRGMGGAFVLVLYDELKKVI
Sequence of RECK on human lung fibroblasts (human) (O95980 23-942): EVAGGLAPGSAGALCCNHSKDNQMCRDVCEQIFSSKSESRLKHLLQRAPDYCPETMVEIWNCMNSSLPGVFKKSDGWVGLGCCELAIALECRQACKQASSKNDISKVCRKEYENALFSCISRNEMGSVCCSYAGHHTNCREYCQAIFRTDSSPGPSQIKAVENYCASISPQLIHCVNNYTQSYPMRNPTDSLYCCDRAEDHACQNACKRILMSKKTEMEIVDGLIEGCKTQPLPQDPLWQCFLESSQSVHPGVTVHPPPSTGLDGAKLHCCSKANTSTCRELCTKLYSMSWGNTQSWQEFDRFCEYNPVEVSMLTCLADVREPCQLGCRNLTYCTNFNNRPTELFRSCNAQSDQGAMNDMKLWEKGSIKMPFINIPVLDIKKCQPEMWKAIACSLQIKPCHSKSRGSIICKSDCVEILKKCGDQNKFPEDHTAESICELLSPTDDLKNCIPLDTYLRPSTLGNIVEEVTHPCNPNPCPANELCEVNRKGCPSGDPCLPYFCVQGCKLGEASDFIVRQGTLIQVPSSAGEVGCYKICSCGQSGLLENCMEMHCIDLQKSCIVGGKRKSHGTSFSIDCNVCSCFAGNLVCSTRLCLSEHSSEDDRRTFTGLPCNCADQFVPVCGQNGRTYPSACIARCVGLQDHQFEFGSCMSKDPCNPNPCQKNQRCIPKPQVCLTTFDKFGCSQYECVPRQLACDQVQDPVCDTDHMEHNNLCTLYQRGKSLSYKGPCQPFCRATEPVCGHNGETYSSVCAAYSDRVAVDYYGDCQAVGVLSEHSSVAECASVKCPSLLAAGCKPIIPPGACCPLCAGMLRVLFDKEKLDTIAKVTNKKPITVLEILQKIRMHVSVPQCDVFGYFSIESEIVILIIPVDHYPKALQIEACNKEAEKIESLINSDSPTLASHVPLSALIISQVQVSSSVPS
Sequence of SNX18 in human lung fibroblasts (human) (Q96RF0 whole entry): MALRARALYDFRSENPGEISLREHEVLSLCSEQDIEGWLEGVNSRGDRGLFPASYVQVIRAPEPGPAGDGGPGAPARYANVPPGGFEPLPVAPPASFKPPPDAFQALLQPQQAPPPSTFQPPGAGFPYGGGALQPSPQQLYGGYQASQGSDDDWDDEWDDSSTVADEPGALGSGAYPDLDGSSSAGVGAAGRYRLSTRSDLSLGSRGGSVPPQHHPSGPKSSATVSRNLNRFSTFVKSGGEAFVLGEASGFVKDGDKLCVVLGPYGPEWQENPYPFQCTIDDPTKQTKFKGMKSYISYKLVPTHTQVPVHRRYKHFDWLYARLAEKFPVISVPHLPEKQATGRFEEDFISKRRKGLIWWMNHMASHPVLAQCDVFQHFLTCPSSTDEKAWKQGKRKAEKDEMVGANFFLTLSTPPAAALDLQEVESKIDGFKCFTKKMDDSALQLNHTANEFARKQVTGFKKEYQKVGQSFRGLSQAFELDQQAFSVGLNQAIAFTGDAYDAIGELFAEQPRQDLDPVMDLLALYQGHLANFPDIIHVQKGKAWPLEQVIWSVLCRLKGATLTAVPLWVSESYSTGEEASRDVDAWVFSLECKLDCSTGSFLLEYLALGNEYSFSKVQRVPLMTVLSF
Sequence of NRP1 on human lung fibroblasts (human) (O14786 22-923): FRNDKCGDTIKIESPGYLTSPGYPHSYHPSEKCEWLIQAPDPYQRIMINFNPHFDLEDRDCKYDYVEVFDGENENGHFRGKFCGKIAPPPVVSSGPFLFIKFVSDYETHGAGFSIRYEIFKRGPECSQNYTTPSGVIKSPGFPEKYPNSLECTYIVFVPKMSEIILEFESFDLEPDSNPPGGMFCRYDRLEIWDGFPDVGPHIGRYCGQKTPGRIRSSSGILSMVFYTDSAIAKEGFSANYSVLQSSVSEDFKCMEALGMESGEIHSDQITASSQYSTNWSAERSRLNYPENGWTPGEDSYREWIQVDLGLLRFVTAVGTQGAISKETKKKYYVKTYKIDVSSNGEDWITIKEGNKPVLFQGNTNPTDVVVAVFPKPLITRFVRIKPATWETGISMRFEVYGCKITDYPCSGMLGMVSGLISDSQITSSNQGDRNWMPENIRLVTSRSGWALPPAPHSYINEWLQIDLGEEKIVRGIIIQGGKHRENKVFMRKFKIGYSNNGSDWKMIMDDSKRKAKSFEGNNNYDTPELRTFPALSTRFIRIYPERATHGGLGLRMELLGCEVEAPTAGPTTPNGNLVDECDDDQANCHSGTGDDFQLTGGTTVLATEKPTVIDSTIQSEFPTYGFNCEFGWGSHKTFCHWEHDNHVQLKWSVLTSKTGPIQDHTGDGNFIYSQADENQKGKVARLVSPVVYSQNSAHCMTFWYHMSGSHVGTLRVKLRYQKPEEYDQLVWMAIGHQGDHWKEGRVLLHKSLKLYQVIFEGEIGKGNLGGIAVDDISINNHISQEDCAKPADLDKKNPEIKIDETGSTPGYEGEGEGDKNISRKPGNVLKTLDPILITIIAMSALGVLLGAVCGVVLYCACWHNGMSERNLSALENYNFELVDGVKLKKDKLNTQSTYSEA

recombinant human IGFBP5 (from UniProt P24593 21-272) (ligand)
log2(FC) IGFBP5 vs TRFE (log2 fold change) [1]: -4.1
log2(FC) IGFBP5 vs TRFE (log2 fold change) [2]: -2.3
log2(FC) IGFBP5 vs TRFE (log2 fold change) [3]: -1.7
log2(FC) IGFBP5 vs TRFE (log2 fold change) [4]: -1
log2(FC) IGFBP5 vs TRFE (log2 fold change) [5]: -3.7
log2(FC) IGFBP5 vs TRFE (log2 fold change) [6]: -2.3
log2(FC) IGFBP5 vs TRFE (log2 fold change) [7]: -1
log2(FC) IGFBP5 vs TRFE (log2 fold change) [8]: -0.6
log2(FC) IGFBP5 vs TRFE (log2 fold change) [9]: -5.5
log2(FC) IGFBP5 vs TRFE (log2 fold change) [10]: -1.8
log2(FC) IGFBP5 vs BSA (log2 fold change) [11]: -4.9
log2(FC) IGFBP5 vs BSA (log2 fold change) [12]: -2.2
log2(FC) IGFBP5 vs BSA (log2 fold change) [13]: -2.5
log2(FC) IGFBP5 vs BSA (log2 fold change) [14]: -1.5
log2(FC) IGFBP5 vs BSA (log2 fold change) [15]: -3.8
log2(FC) IGFBP5 vs BSA (log2 fold change) [16]: -4.3
log2(FC) IGFBP5 vs BSA (log2 fold change) [17]: -1.6
log2(FC) IGFBP5 vs BSA (log2 fold change) [18]: -0.8
log2(FC) IGFBP5 vs BSA (log2 fold change) [19]: -5.9
log2(FC) IGFBP5 vs BSA (log2 fold change) [20]: -2.2
